In assay [1] the target is bovine serum albumin (bovine) (UniProt P02769). The assay is described as follows: phage ELISA, 10^10 phagemid per well, BSA-only wells.
Assay [2] has as its target unrelated control antibody. In words: phage ELISA, 10^8 phagemid per well, wells coated with control mAb.
The target of assay [3] is unrelated control antibody. The assay is described as follows: phage ELISA, 10^10 phagemid per well, wells coated with control mAb.
In assay [4] the target is bovine serum albumin (bovine) (UniProt P02769). The assay is described as follows: phage ELISA, 10^8 phagemid per well, BSA-only wells.
The target of assay [5] is unrelated control antibody. The assay is described as follows: phage ELISA, 10^9 phagemid per well, wells coated with control mAb.
Assay [6] addresses bovine serum albumin (bovine) (UniProt P02769). In words: phage ELISA, 10^9 phagemid per well, BSA-only wells.

Positions of bridges follow the written chain, without caps; N, C: chain ends. No end group written: not given here.

Chain of bovine serum albumin (bovine) (P02769 25-607 limits assumed): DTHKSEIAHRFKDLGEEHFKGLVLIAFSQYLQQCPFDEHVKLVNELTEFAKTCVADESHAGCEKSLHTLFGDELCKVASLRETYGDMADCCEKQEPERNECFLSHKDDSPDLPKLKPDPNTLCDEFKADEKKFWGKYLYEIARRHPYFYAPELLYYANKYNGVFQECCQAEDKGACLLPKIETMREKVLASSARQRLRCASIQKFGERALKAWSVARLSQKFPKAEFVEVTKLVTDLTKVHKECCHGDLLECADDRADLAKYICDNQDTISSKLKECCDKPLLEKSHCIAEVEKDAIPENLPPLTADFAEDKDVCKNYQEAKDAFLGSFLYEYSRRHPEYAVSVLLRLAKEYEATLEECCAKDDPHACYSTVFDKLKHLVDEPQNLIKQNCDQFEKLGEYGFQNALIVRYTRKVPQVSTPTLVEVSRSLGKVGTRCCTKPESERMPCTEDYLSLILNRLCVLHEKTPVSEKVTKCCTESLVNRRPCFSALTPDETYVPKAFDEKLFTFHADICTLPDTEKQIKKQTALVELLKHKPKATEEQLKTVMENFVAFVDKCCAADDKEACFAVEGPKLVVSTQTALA

B1: phagemid CS1-29p (peptide)
peptide: CSGLYPWDYFMCS
modifications: disulfide 1-12 (inferred)
Turning to B1, the ELISA (absorbance units) (absorbance units) in assay [1] was 0.141; in assay [2] it was 0.125; in assay [3] it was 0.148; in assay [4] it was 0.127; in assay [5], 0.136; in assay [6], 0.147.

B2: phagemid CS1-2p (peptide)
peptide: CSLFYLWDQDRCS
modifications: disulfide 1-12 (inferred)
As for B2, the ELISA (absorbance units) (absorbance units) is 0.327 in assay [1]; 0.188 in assay [2]; 0.228 in assay [3]; 0.264 in assay [4]; 0.199 in assay [5]; 0.277 in assay [6].

B3: phagemid CS1-11p (peptide)
peptide: CSFRYQWDMFRCS
modifications: disulfide 1-12 (inferred)
In the case of B3, the ELISA (absorbance units) (absorbance units) in assay [1] was 0.304; in assay [2] it was 0.252; in assay [3], 0.242; in assay [4], 0.268; in assay [5], 0.258; in assay [6] it was 0.278.

B4: phagemid CS1-31p (peptide)
peptide: CSFFYSLCYCWCS
modifications: disulfide (positions not given here); also: disulfide cyclised, pairing of the four Cys not given here
As to B4, the ELISA (absorbance units) (absorbance units) was 0.112 in assay [1]; 0.116 in assay [2]; 0.125 in assay [3]; 0.109 in assay [4]; 0.118 in assay [5]; 0.114 in assay [6].

B5: phagemid CS1-9p (peptide)
peptide: CSGLYPWDMFRCS
modifications: disulfide 1-12 (inferred)
On to B5, for which the ELISA (absorbance units) (absorbance units) in assay [1] amounted to 0.221; in assay [2], 0.209; in assay [3] it was 0.213; in assay [4] it was 0.216; in assay [5], 0.204; in assay [6], 0.22.

B6: phagemid CS1-6p (peptide)
peptide: CSFRYLWDQDRCS
modifications: disulfide 1-12 (inferred)
As to B6, the ELISA (absorbance units) (absorbance units) in assay [1] turned out to be 0.275; in assay [2] it was 0.173; in assay [3] it was 0.203; in assay [4], 0.254; in assay [5], 0.172; in assay [6] it was 0.27.

The values are drawn from patent publication US20110020379A1.
